For 16 sequences, protein production results are on record in a protein production outcome set (Wang et al. 2014).

This series can be described thus: label from the status in PepcDB records.
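Also: failed if final PepcDB status was selected cloned or expressed and not failed if soluble or beyond.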

“MCTEFWNSFSNLFTGGRSTNRKIILVLLIMVLSSGVCSADNYVGGIPLTSAHSGTVSGGVYCDSYYGMGDQEAKASNTIEKTFTVPDNANVEWAMLLTNVYCGHMQNNYQGKAKVDFNGKNLGTETLNVPYTYSYNGGNGHVQVNDHVNRVTSDYMMYYDVTGLVKAGKNTAVVKTDPLDSSFDGRIRLVTLVVAYNDGSKKTIWYQVNRGHDADSYYSDDEMNENYIGSTAFQAALPEGSSLTDSKLTLVYQASSDGAYAFNGNALSSGTPQGTFSGSNTWDVKDSLKSSGTNTLTYDRTASFYKSVLGILTAEYTTSSSGDSTDDTPADNTTDNGSAGDTTDDISSDNTTNDTSSDNTTSDVPAGNTTNDTPADNTTDAKFSADLGVQAIKVSHNSAAKAWKNLVNTVNVTVINNGPEKAGSFALELYSEGSLLESKPINGLANGATEAVEFVWKPEDAKNYTLRAVVVPGSTINDANATNNELSKTQEVMHNGYIGDKPLETYLHGTVKGNIIYDYGNSSYVKVSSGDVYTAGHSLSLPEGAIVKYARLYNFWTWSATGSSGVIPSMSLDFAGSSLTPEAEYADQKGWGQYDYPTGTWAYNVTGLVSGSGNYITTVKNTNSDAENSFCIDGIALLVVYEDASGKETQYWINEGCDAVSTMSSSGGLTPDEATVKIAFAGDSIDLGNVDNARLWTTVQSGGHEGIALKFNEMSISGVYDSTPSSNLDIDEARDVTSYLLSQNNEAQIIAPSVTDNSGDYMIPSSAILAVSYKSETTDDTNITDDTNVTDDTNVTDGTNVTDDTNVTDGTNVTNDTNVTNDTNVTNDTNVTNDTNVTNDTNVTNDTNVTDDTNVTDGTNVTDGTNVTIDTNVTIDTNVTIDTNVTDNTNVTDDTNMKDDTNVTLKVNIIPVISLTVSPDSLDFGTVSPGTPSESLPLALKNNGGISIKVTAEVHDQENGPFATGLLLDQNIWSNYSKVLAAESAETSQAQLDLPLNYSSTGQFQGTLSLWAEAA”: the protein production entry is given as “failed”. As to “MCTSLTLETKNGQHLFARTMDFTLDMNQEVIIIPRHYQWNNITGEIINTKHATVGMGINHQGRIIMADGVNEAGMTCATLYFPGFATYSQSIDDNTTNLAPFDFVTWSLTQFNSVKELKKSVDSITFLDIPLPDLGLTPPLHWILADKWGDCIVLDPTSEGLKLYDNPLGVMTNSPEFNWHLQNLRQYIGLKSQPFAPTEWSNLPLSAFGQGSGSMGLPGDFTPPSRFVRAAYGKQNIQGIDSEEEGVSALFHILSNCEVPKGGVITEEGALDNTIYTSVMCMESGTYYYHTYDCRQIIAVHLFHENLDTDEIKAYPFQRKQKIFYEN”, the protein production result was “failed”. For the sequence “MCYHLIIDSFIDRISRMHTQRGLEVTTGSIEAVDSINYFHEQVLSSGQNAIQILDSAKKHTDNLLIQTYAAAFYLYAQEDVANEQASDYLQSAFRLLTSANEREKLIFEAVTNWSKRDYANAISLLVTLLERYPRDTLALKFMEWLFYCTGQAFNAEYFLKVCDKCAPENQDESHFLAIHSFALELCGQYSKAKEMAEEAITMNLLTPWAHHTLAHVHLLTSDITGGINRLRDLQKTWEDILPLLKGHNTWHLALFYLANRNEEEVKKLYPHISGALPDTVLEQLDTISLLWRMDMAGLPQDRLLNQVVDHLSTHPLEYYTGFTNAHFIYCLVKSGYKNEADESLKRMKFYACSPSSDALWGDVVLPLCQGIYAFADADYKTALMLMEPVIGECAQLGGSDAQIELFFQTYLLVLIHNKQKDKALQFFTEHLKYYNNTPLSDWWFQSANKA”, the protein production result was “failed”. In the case of “MDAAVVGGGPAGSLAAILLGKSYDVALFEEHQSAGFPVQCAGLVSDKCYKKLKEHCKAEKAIENHIKGAFFFSPSGKIVLEGRGEAVVVERKILDRLLFERAAERAKVFVKEKARLNGFRIITPSREVSAEKIIGADGVNSTVREHFGFPTMGFFTAVQVEAKFEPLDENCVELYFGGNWSDSFFAYAIPLGDTARIGVVSRSSPLRYLENLMKRHPSVSGRVEGSAVELNAGAIPDRLVKFSKRDVALIGDAAGMVKPYTGGGLYYHLIAAEKLAESFPDLKGYEKSYLKEMGREYRFGYAVRKLYSLPDEKLEQLFSAMADFDFRGVHMDSPSTLIRKAADISFRLLRKPSLAFYLVKSLFLLEHHHHHH”, the protein production result is “failed”.

For “MDAIRIVLKNISQVLLLNNAWTGLFILLGLFIGSWKVGVMALIASVIALLLAKRTNYSEEEINTGLSGFNPVLTAIALTLFLVPKWYSLIIILVAIIITMPIGSAFREFFKPFGVPMLTMPYVFVSWLILLMSFQFKFVNADVNILPNAIQEIQFSGHHIQFINAFLSGFSEIFLLKSVLAGTLILIGIFIASRKAGVYAIVANLIGFLAVIVLGANHDQINEGLFGYNVILTVLALGIAFRTRIQRPISIVLGILLTVVIHAGMTTLLTPYGLPVFTLPFIIATWIMLFAGNQMKAQEI”, the protein production entry is recorded as “failed”. In the case of “MDALEIFKTLFSLVMRFSSYLPSNEEISDMKTTELYAFLYVALFGPKKMKEIAEFLSTTKSNVTNVVDSLEKRGLVVREMDPVDRRTYRVVLTEKGKEIFGEILSNFESLLKSVLEKFSEEDFKVVSEGFNRMVEALSREGR”, the protein production entry is “not failed”. Take “MDALVEDDICILNHEKAHKRDTVTPVSIYSGDESVASHFALVTAYEDIKKRLKDSEKENSLLKKRIRFLEEKLIARFEEETSSVGREQVNKAYHAYREVCIDRDNLKSKLDKMNKDNSESLKVLNEQLQSKEVELLQLRTEVETQQVMRNLNPPSSNWEVEKLSCDLKIHGLEQELELMRKECSDLKIELQKAKQTDPYQEDNLKSRDLQKLSISSDNMQHAYWELKREMSNLHLVTQVQAELLRKLKTSTAIKKGKSLFTGNH”: the protein production result is “not failed”. Take “MDASTSFAILPSNVKQKTAFPRKINQVKTASWANNCLTGTLDVGHFSCYFVNEKIARVTVNPFGEADLTPSIAAINDTEKQAAVFTETNDHYELQFADKKLIVSKNPFQIIMKQAGKTIFQTEGLAINRDKEHQISIQSKPGTAIFGLGEKTGALNKAGSIISMWNTDVYSPHNKDTVELYQSIPFMIADTEETTYGLFYDNSHRTEFDFQSFEEMYTILAEGGQANLYVIFGEDVKEVVANYTNLTGKTPLPPKWSLGYHQSRYSYTSEEEVERIANTFKEKEIPLDCVFMDIHYMDDFRVFTFNPDTFPNGPELIARLREQNIDVVPIVDPGIKKDVNYSVYQEGIKHHYFCRKLEGAIYYGDVWPGVSAFPDFLSTTVQRWWGDLHQFYTDLGIRGIWNDMNEPSVFNESKTMDLDVVHNMDGKNVTHKEAHNLYGLYMSKATFEGLKRLVPNERPFSLTRAGYAGVQRYSAVWTGDNRSHWEHLEMSLPMIMNLGLSGVAFTGADVGGFSSDCTKEMLIRWTQAGAFLPYFRNHCVQDSIYQEPWAFGLDAEKIVKKYIEMRYTFLPYIYTEFQKTAENGLPIVRPLYMEFKEERDLIQVNDQFMLGENILVAPIVREGQVKRLVRLPKGTWFNYWTKEQVEGGDYIIADAPIDVMPIYIKAGTILPLGTSVQNTKEAQDLALEIYLDNDEASGYVYNDDGKSYQYESGKISKTAFTATFKNGEVQINGDHHGEENLQQKVTTIEVFGKKIDKITRAGI”: the protein production entry was “failed”. On to “MDATMVFKRLLGSLGVGAPTVDTVLDPAPVLPGGTLTGQVHLEGGQTDFDIEHITLELVARVEAEHEDGEDEGVVVFDRFTVGGGFRLGAEEPRSVPFRVTLPWETPITELYGQPLGIVLGVRTELAVADAKDKGDLDQLTVTALPVQEAVLEAFGQLGFGFGSADLEYGHIGGTGQQLPFYQEIELVPAPQYADRLNEIELTFLAGPGGLEVVLEADKRGGLLSSGHDAVTRFSVGHHDARDWAAEVEGWVRQLVEHHTTYGAPGTHGHSTPYAGHGHHDPHGNGGRHHDDHRSGPGVGTAVAAGAAGLAVGVVGGMVAAEVVDEVGDFFEGDDEEEDEG”, for which the protein production result was “not failed”. “MDDDPHFDQNVQTVIAKTEAYITESVKAGGTGRALRDAHAKGYGLVRGEVEILDGLPPEYAQGIYATPGTHDALIRFSNGSPHAGADARLGAATGLALKIFDIPGPTLLEDEPDTGTFDYANINGPIFFCNTVEHYLFIQELFLNAPAYFSQGRPGAHRFFTDFVTGKGTLDQDDWAWDEFLAFLRLSKTPPANLLLSSYWTMGAVRHGDYIAKVRITPDPSFAAAVVRRDIDPTSAQEVFRPALEAELQERPYAFDIQVQLCTDLERMPVEDTTVEWPEQLSPSVTVAKLRLPRQDISGPENLEKMDSLSFTPWRVTAEHAPLGNIMRSRKEVYRQSSMELEHHHHHH”: the protein production result is “failed”. Then “MDDERTVRSEVHVVVEDGEIVAIEDGYASGDEVVDATEEVVIPGLVNCHTHMYALPIRGAPLAASPESFYEALVDIWWNVDEAFTERDARLSALGSSVEMLQSGVTTFCDNYSGPNTLPGGLDAVAEGVAQTPIRGMITFETTARNSEAQARDGIAENQRFIDEAEDQYDTVSGHYCLHTLFTNTEDIVAECVDRATDDNRPIQIHLEEGLVDVHESIADYGERPVFALEDMGFFDAEVIAAHCVHSTESEIEVLAEHDVNVAHNPYSNINNAVGIADVETMQAHEMTIGLGDDGWDPDMFETMRSAVGIHKLKQRNPSGFDMATALEWATIGSAAVLGMDDAVGSIEVGKRGDFVTLDLGPNPVLDGSAPYYVVSAASRADVTRTIIDGESVYDQQSGVTGVDDSDMTAVGDASAELWERL”, with “failed”. Take “MDDIRCAIIIDPDLPPGVIANTAAVLAMSLGKRHPELVGQDLPDARGQPRQGITTVPIPVLKGGADQLRALRAAASETGLTLVELTSATRFTRSYQEYAAALAATPEEMVEYQGLALCGPGKRVRQLTGSLGLLRLEHHHHHH”: the protein production result is “failed”.

For the sequence “MDDLASQSFPEPERAIMKATYQVLCEYGYADLTIQQIADEYGKTTTAVHYHCDTKNKLLTAFLDYLLEELADSVHNIRTTNPENRLKFLLDELLVKSKNEPVLSIALLEMQSQTPYKEPFRERFKQMAVVNRQTELDFTVSETA”, the protein production entry was “failed”. “MDDLIRLLEEMGIPFAYDHFAEGESPDPPFICYLLPQSDNFSADGKVYLKVSSVNIELYTDCKDLSVEQKLEAVLDTHGIFYDKTKVWIESEKLYEVLYSFEMEVLEHHHHHH”: the protein production entry was “failed”. To “MDDQGCPRCKTTKYRNPSLKLMVNVCGHTLCESCVDLLFVRGAGNCPECGTPLRKSNFRVQLFEDPTVDKEVEIRKKVLKIYNKREEDFPSLREYNDFLEEVEEIVFNLTNNVDLDNTKKKMEIYQKENKDVIQKNKLKLTREQEELEEALEVERQENEQRRLFIQKEEQLQQILKRKNKQAFLDELESSDLPVALLLAQHKDRSTQLEMQLEKPKPVKPVTFSTGIKMGQHISLAPIHKLEEALYEYQPLQIETYGPHVPELEMLGRLGYLNHVRAASPQDLAGGYTSSLACHRALQDAFSGLFWQPS” belongs “not failed”; to “MDDVGRYQCLAVNEMGTVKKVVTVVLQSAPVFQVEPRDVTVRSGVDVELRCRATGEPVPTIEWLRAGRPLQAGRKLRALPDGSLWLEHVEAGDAGVYECVAHNRLGSVTAKALLAVRGEPRGSRGSMTGVINGQEFGMATLNISVLQQGSSEAPTIWSSISHVPASVGPLMRVLVVTIAPIYWALARESGEALNGYSLTGGSFQQESQMEFSTGELLTMTQVARGLDPDGLLLVDMKINGMIPESLADGDLRVQDFQEHYVQTGPGQLFAGSTQRFLHDSLPASLRCNHSIQYDETRGLQPQLVQHLRASSISSAFDPEAEALNFQLTTALQTEENEVGCPEGFEPDVQGAFCVDKDECSGGPSPCSHTCRNAPGHFSCSCPTGFSLAWDHRNCRDVDECAGDTHLCQEEQRCVNLLGSYNCLASCRPGFRVTADGSNCEDVDECLEQLDECHYNQLCENTPGGHHCGCPRGYRQQGHSLPCLDINECLQLPTPCVYQCQNLQGSYRCLCPPGQTLLRDGRTCIPLERNRQNITIVSHRSPFGPWLRSRVPRPSSSYHTWVSLRPGSGALNSVGRAWCPPGFIRQDGVCADLDECRVRSLCQHACQNTEGSYYCLCPSGYRLLPSGKNCQDINECEEDGIECGPGQMCFNTRGSFQCVDTPCPTTYRQGSSPGTCFRRCSQDCSASGPSTLQYRLLPLPLGVRAHHDVARLAAFSEAGIPANRTELTVLEPDPRSPFALRQLRAGQGAVYTRRALTRAGLYRLTVRAAAPRHQSVYILLIAVSPYPY”, “failed”.
